From US20250154283A1 (published 2025) come the findings set out here.

A value given as a limit tells only on which side of the number the result lay.

For experiment [1], the target named is T1, biotinylated human VWF cysteine knot (CK) domain construct (human, biotin on the in vitro biotinylation tag (residue not stated); one N-glycan).
T1 construct: Disulfide-linked homodimer; also called biotinylated human VWF CK domain; human VWF CK domain construct
T1 chain: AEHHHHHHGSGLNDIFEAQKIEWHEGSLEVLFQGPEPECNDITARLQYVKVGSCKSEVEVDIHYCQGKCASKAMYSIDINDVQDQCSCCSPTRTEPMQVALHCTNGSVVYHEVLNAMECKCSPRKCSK
Nature of the experiment: SPR, scFv captured on anti-SV5, pH 7.4.

The target of experiment [2] is T2, His-StrepTagII-HRV3C-human VWF-CK-HA-tag (human).
T2 construct: it begins with the VWF signal peptide, whose limits were marked only by underlining that is lost in the text, so it was not cut off; The CK domain forms disulfide-linked homodimers (CK dimer); also called recombinant human CK domain; Human CK
T2 chain: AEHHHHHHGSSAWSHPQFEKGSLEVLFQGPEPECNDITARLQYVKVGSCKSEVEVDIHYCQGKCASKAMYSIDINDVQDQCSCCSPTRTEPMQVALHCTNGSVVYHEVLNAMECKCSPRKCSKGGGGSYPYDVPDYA
Kind of experiment: solution-phase equilibrium binding, free antibody by ELISA; apparent Kd; pH 5.5; mean ± SD, n=2.
Experimental: (§1) Following incubation for 30 min at room temperature to establish equilibrium, unbound antibody was quantified by ELISA using the immobilized human CK domain for capture and HRP-conjugated goat anti-human IgG Fc antibody for detection.
(§2) Following a single wash of the plate with 200 μL of wash buffer (TBS containing 0.05% (v/v) Tween-20 and 5 mM CaCl₂), the plate was blocked by incubation with 200 μL blocking buffer (TBS containing 5 mM CaCl₂ and 1% (w/w) BSA) for 1 hour at room temperature. […] Incubation lasted 3 min and was followed by 5-min incubation with 100 μL HRP-conjugated goat anti-human IgG Fc antibody for detection (1 mg/mL stock diluted 1:20,000 in blocking buffer). Before and after addition of a detection antibody, the plate was washed 5 times with 200 μL wash buffer. A chromogenic horseradish peroxidase (HRP) substrate (100 μL) was then added and following color development for 3 min, 100 μL ELISA stop solution were added to quench the reaction. Absorbance was measured at 450 nm with subtraction of the absorbance at 620 nm.
(§3) The standard curve prepared with free antibody was fitted to a Sigmoidal four-parameter logistic (4PL) model.

The target in the next experiment is T3, human plasma-derived VWF (human, UniProt P04275 764-2813).
T3 construct: multimeric; also called pd-VWF; Human VWF
Kind of experiment: solution-phase equilibrium binding, free antibody by ELISA; apparent Kd; pH 7.4; mean ± SD, n=2.

In experiment [3] the target is T2, His-StrepTagII-HRV3C-human VWF-CK-HA-tag. Described as above.
Experimental: as §1, §2, §3
Experiment [4] has as its target T4, His-StrepTagII-HRV3C-cyno VWF-CK-HA-tag (cynomolgus monkey).
T4 construct: it begins with the VWF signal peptide, whose limits were marked only by underlining that is lost in the text, so it was not cut off; The CK domain forms disulfide-linked homodimers; also called recombinant cyno CK domain; Cyno CK
T4 chain: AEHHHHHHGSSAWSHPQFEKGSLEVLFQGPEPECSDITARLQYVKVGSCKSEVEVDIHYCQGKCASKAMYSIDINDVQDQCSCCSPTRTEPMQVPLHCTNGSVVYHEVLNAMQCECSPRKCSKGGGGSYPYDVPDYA
The experiment is described as above.
Experimental: as §1, §2, §3

In experiment [5] the target is T5, VWF in human plasma (human, UniProt P04275 764-2813).
T5 construct: Endogenous VWF in donor plasma, not purified; multimeric; also called VWF in plasma; VWF in platelet rich plasma
Kind of experiment: VWF:FVIIIB enzyme immunoassay; human plasma (5 donors) 17 h 37 °C with 200 nM antibody; FVIII bound to captured VWF relative to untreated plasma; ligand FVIII.

Experiment [6] concerns the target T5, VWF in human plasma. Nature of the experiment: VWF:FVIIIB enzyme immunoassay; human plasma (5 donors) 17 h 37 °C with 600 nM antibody; FVIII bound to captured VWF relative to untreated plasma; ligand FVIII.
Experiment [7] concerns the target T5, VWF in human plasma. Kind of experiment: collagen type III binding ELISA; human plasma (5 donors) 17 h 37 °C with 600 nM antibody; VWF bound to collagen relative to untreated plasma; ligand collagen type III.
Experimental: Following incubation, collagen binding was determined relative to untreated plasma.
Experiment [8] addresses T5, VWF in human plasma. Nature of the experiment: flow cytometry, FITC anti-VWF on platelets; human PRP (2 donors), 0.5 mg/ml ristocetin, 600 nM antibody; relative to the same plasma without antibody; receptor platelet gp1b.
Experimental: PRP was prepared by centrifuging the blood at 250 g for 15 min. […] Sample analysis was performed on a flow cytometer. Using forward (FSC) and sideward (SSC) scatter pattern, a gate was placed on the platelets.
The target in experiment [9] is T6, His-StrepTagII-HRV3C-cyno VWF-CK-HA-tag (cynomolgus monkey).
T6 construct: also called recombinant cyno CK domain; cyno CK
T6 chain: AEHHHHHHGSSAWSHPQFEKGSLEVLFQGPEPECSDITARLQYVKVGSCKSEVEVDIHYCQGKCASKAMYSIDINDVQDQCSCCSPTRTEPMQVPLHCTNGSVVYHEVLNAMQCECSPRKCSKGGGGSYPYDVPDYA
Kind of experiment: solution-phase equilibrium binding, unbound antibody by ELISA.

Experimental for human plasma-derived VWF: as §1, §2, §3

B1: 4761_Lib8_scFv (scFv, not shown: small tags and cut ends)
scFv: EVQLVESGGGLVQPGRSLRLSCAASGFTFSSDTMHWVRQAPGKGLEWVSAISSSGDHTDYADSVEGRFTISRDNAKNSLYLQMNSLRAEDTAVYYCAREGLRGYYFDYWGQGTLVTVSSSGGSTITSYNVYYTKLSSSGTDIQMTQSPSSLSASVGDRVTITCRASQGISGHLAWYQQKPGKAPKLLIYAASALQSGVPSRFSGSGSGTDFTLTISSLQPEDVATYYCQQSHSLPWTFGGGTKVEIK
As for B1, the binding result in [1] is given as “binds”.

B2: 9312_Lib8_scFv (scFv, not shown: small tags and cut ends)
scFv: EVQLVESGGGLVQPGRSLRLSCAASGFSLSTYDMHWVRQAPGKGLEWVSAISSSGDTRDYADSVEGRFTISRDNAKNSLYLQMNSLRAEDTAVYYCARAFWGGDAFDIWGQGTMVTVSSSGGSTITSYNVYYTKLSSSGTDIQMTQSPSSLSASVGDRVTITCRASQTIGYWLAWYQQKPGKAPKLLIYGASTLEGGVPSRFSGSGSGTDFTLTISSLQPEDVATYYCQHSYSAPPTFGGGTKVEIK
Turning to B2, the binding result in [1] is “binds”.

B3: 5802_Lib4_scFv (scFv, not shown: small tags and cut ends)
scFv: QVQLQESGPGLVKPSQTLSLTCTVSGYSISSGDYHWSWIRQPPGKGLEWIGYINPSGSADYNPSLKSRVTMSVDTSKNQFSLKVNSVTAADTAVYYCARDGVAATYYYYYGMDVWGQGTTVTVSSSGGSTITSYNVYYTKLSSSGTEIVMTQSPATLSLSPGERATLSCRASHSIGSNLAWYQQKPGQAPRLLIYDATTRATGIPARFSGSGSGTDFTLTISSLEPEDFAVYYCQQAYSFPLTFGGGTKVEIK
For B3, the binding result in experiment [1] was “binds”.

B4: Lib1_P1_A6_scFv (scFv, not shown: small tags and cut ends)
scFv: QVQLVQSGAEVKKPGASVKVSCKVSGSTFSNYAIHWVRQAPGKGLEWMGGIVPLSGTAIYAQKFQGRVTMTEDTSTDTAYMELSSLKSEDTAVYYCARDQGESSGWYAIYYGMDVWGQGTTVTVSSSGGSTITSYNVYYTKLSSSGTDIQMTQSPSSVSASVGDRVTITCRASQGIGTWLAWYQQKPGKAPKLLIYGSSSRASGVPSRFSGSGSGTDFTLTISSLQPEDFANYYCQQSYGKPTFGGGTKVEIK
On to B4, for which the binding result in experiment [1] was “binds”.

B5: Lib1_P1_G3 OA (antibody, human IgG4 S228P, kappa, F234A L235A)
heavy: QVQLVQSGAEVKKPGASVKVSCKVSGYTSRQYIHWVRQAPGKGLEWMGWVTPIFGTTNYAQKFQGRVTMTEDTSTDTAYMELSSLKSEDTAVYYCAREWTGTTAFDIWGQGTLVTVSSASTKGPSVFPLAPCSRSTSESTAALGCLVKDYFPEPVTVSWNSGALTSGVHTFPAVLQSSGLYSLSSVVTVPSSSLGTKTYTCNVDHKPSNTKVDKRVESKYGPPCPPCPAPEAAGGPSVFLFPPKPKDTLMISRTPEVTCVVVDVSQEDPEVQFNWYVDGVEVHNAKTKPREEQFNSTYRVVSVLTVLHQDWLNGKEYKCKVSNKGLPSSIEKTISKAKGQPREPQVYTLPPSQEEMTKNQVSLSCAVKGFYPSDIAVEWESNGQPENNYKTTPPVLDSDGSFFLVSRLTVDKSRWQEGNVFSCSVMHEALHNHYTQKSLSLSLG
chain: ESKYGPPCPPCPAPEAAGGPSVFLFPPKPKDTLMISRTPEVTCVVVDVSQEDPEVQFNWYVDGVEVHNAKTKPREEQFNSTYRVVSVLTVLHQDWLNGKEYKCKVSNKGLPSSIEKTISKAKGQPREPQVYTLPPSQEEMTKNQVSLWCLVKGFYPSDIAVEWESNGQPENNYKTTPPVLDSDGSFFLYSRLTVDKSRWQEGNVFSCSVMHEALHNHYTQKSLSLSLG
light: DIQMTQSPSSVSASVGDRVTITCRASQDIGHYLAWYQQKPGKAPKLLIYAASNRASGVPSRFSGSGSGTDFTLTISSLQPEDFANYYCQQGYSAPYGFGGGTKVEIKRTVAAPSVFIFPPSDEQLKSGTASVVCLLNNFYPREAKVQWKVDNALQSGNSQESVTEQDSKDSTYSLSSTLTLSKADYEKHKVYACEVTHQGLSSPVTKSFNRGEC
With B5, the Kd in experiment [2] amounted to 32.3 nM; with human plasma-derived VWF, 5.3 nM; in [3] it was 4.3 nM; in experiment [4], 11 nM. For the same molecule, the “VWF:FVIII level (% of control)” value in the experiment with VWF in human plasma [5] was 84.5 % of control; with VWF in human plasma [6] it was 85.8 % of control. In the experiment with VWF in human plasma [7], the “Collagen binding (% control)” value was determined as 108 % control. In addition, the “Platelet binding (% control)” value with VWF in human plasma [8] was 101 % control.

B6: 399_Lib1 OA (antibody, human IgG4 S228P, kappa, F234A L235A)
heavy: QVQLVQSGAEVKKPGASVKVSCKVSGITFTSDYIHWVRQAPGKGLEWMGGMNPYSNKAIYAQKFQGRVTMTEDTSTDTAYMELSSLKSEDTAVYYCATGGLRIAARTSYFDYWGQGTLVTVSSASTKGPSVFPLAPCSRSTSESTAALGCLVKDYFPEPVTVSWNSGALTSGVHTFPAVLQSSGLYSLSSVVTVPSSSLGTKTYTCNVDHKPSNTKVDKRVESKYGPPCPPCPAPEAAGGPSVFLFPPKPKDTLMISRTPEVTCVVVDVSQEDPEVQFNWYVDGVEVHNAKTKPREEQFNSTYRVVSVLTVLHQDWLNGKEYKCKVSNKGLPSSIEKTISKAKGQPREPQVYTLPPSQEEMTKNQVSLSCAVKGFYPSDIAVEWESNGQPENNYKTTPPVLDSDGSFFLVSRLTVDKSRWQEGNVFSCSVMHEALHNHYTQKSLSLSLG
chain: ESKYGPPCPPCPAPEAAGGPSVFLFPPKPKDTLMISRTPEVTCVVVDVSQEDPEVQFNWYVDGVEVHNAKTKPREEQFNSTYRVVSVLTVLHQDWLNGKEYKCKVSNKGLPSSIEKTISKAKGQPREPQVYTLPPSQEEMTKNQVSLWCLVKGFYPSDIAVEWESNGQPENNYKTTPPVLDSDGSFFLYSRLTVDKSRWQEGNVFSCSVMHEALHNHYTQKSLSLSLG
light: DIQMTQSPSSVSASVGDRVTITCRASMDIAGSLAWYQQKPGKAPKLLIYDTSFRATGVPSRFSGSGSGTDFTLTISSLQPEDFANYYCQQYDNPPRLTFGGGTKVEIKRTVAAPSVFIFPPSDEQLKSGTASVVCLLNNFYPREAKVQWKVDNALQSGNSQESVTEQDSKDSTYSLSSTLTLSKADYEKHKVYACEVTHQGLSSPVTKSFNRGEC
Consider B6, for which the Kd in experiment [3] was found to be 13 nM; in [4] it was 16.8 nM.

B7: 399_Lib1 OA (antibody, human IgG4 S228P, kappa, F234A L235A)
heavy: QVQLVQSGAEVKKPGASVKVSCKVSGITFTSDYIHWVRQAPGKGLEWMGGMNPYSNKAIYAQKFQGRVTMTEDTSTDTAYMELSSLKSEDTAVYYCATGGLRIAARTSYFDYWGQGTLVTVSSASTKGPSVFPLAPCSRSTSESTAALGCLVKDYFPEPVTVSWNSGALTSGVHTFPAVLQSSGLYSLSSVVTVPSSSLGTKTYTCNVDHKPSNTKVDKRVESKYGPPCPPCPAPEAAGGPSVFLFPPKPKDTLMISRTPEVTCVVVDVSQEDPEVQFNWYVDGVEVHNAKTKPREEQFNSTYRVVSVLTVLHQDWLNGKEYKCKVSNKGLPSSIEKTISKAKGQPREPQVYTLPPSQEEMTKNQVSLSCAVKGFYPSDIAVEWESNGQPENNYKTTPPVLDSDGSFFLVSRLTVDKSRWQEGNVFSCSVMHEALHNHYTQKSLSLSLG
chain: ESKYGPPCPPCPAPEAAGGPSVFLFPPKPKDTLMISRTPEVTCVVVDVSQEDPEVQFNWYVDGVEVHNAKTKPREEQFNSTYRVVSVLTVLHQDWLNGKEYKCKVSNKGLPSSIEKTISKAKGQPREPQVYTLPPSQEEMTKNQVSLWCLVKGFYPSDIAVEWESNGQPENNYKTTPPVLDSDGSFFLYSRLTVDKSRWQEGNVFSCSVMHEALHNHYTQKSLSLSLG
light: DIQMTQSPSSVSASVGDRVTITCRASMDIAGSLAWYQQKPGKAPKLLIYDTSFRATGVPSRFSGSGSGTDFTLTISSLQPEDFANYYCQQYDNPPRLTFGGGTKVEIKRTVAAPSVFIFPPSDEQLKSGTASVVCLLNNFYPREAKVQWKVDNALQSGNSQESVTEQDSKDSTYSLSSTLTLSKADYEKHKVYACEVTHQGLSSPVTKSFNRGEC
notes: monovalent one-arm human IgG4
In the case of B7, the “fold change in Kd, cyno CK against human CK” value in [9] is < 2 fold.
